B1: TPR t1 (parent)
chain: GACCAAUCUGCCCUCAGAGCUCGAGAACAUCUUCGGAUGCAGAGGAGGCAGGCUUCGGUGGCGCGAUAGCGCCAACGUCCUCAACCUCCAAUGCAUCCCACCACAUGAUGAUGCCUGAAGAGCCUUGGUUUUUUG

This note sets out measurements from the RNAGym collection of RNA variant scans (doi:10.1073/pnas.2313332121).

In this data set the parent is B1. The data set can be described thus: polymerase ribozyme fitness, log enrichment relative to wild type (log ratio); higher = more active; in vitro selection for triplet polymerase activity. In outline: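 In triplicate, a single round of in vitro selection was run on each mutant library, PCR-built and transcribed, covering one subunit of a heterodimeric triplet polymerase ribozyme. Frozen incubation at −7 °C followed annealing with a biotinylated primer, partner subunit and triplets, and extended constructs were then gel-excised, streptavidin-captured and taken through RT-PCR. Fitness is the logarithm of genotype enrichment over wild-type enrichment, from inverse-variance-weighted replicate averages of Illumina-sequenced inputs and outputs. […] only genotypes with ≥10 input reads and ≥1 read per output were kept.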
Turning to C70A A108U C124A, the “polymerase ribozyme fitness (log ratio)” value is -5.58. For the variant C3U C15A U81A U92G C115U U125G, the “polymerase ribozyme fitness (log ratio)” value was -5.92. For the variant G35U A119U A121C C124A, the “polymerase ribozyme fitness (log ratio)” value was -4.47. In the case of A6U C13A A16U C49A G63A C101A it was -4.21. The same measure for U55G G113C: -0.955; for G47C C123G U133A: -0.852. Regarding C70U U106A U109G, the “polymerase ribozyme fitness (log ratio)” value is -4.62. On to A27G C56A C104U, for which the “polymerase ribozyme fitness (log ratio)” value was -2.14. Regarding G10U C82U, the “polymerase ribozyme fitness (log ratio)” value was -0.583. As for G36C A84U C85A C114G, the “polymerase ribozyme fitness (log ratio)” value was -6. For C8U C62G, the “polymerase ribozyme fitness (log ratio)” value is -0.903. In the case of C82A A111U it was -3.3; in that of C3U G58A, -0.199. Turning to G44U U55G G61C A119U, the “polymerase ribozyme fitness (log ratio)” value is -1.87. The same measure for G71C C114G: -4.37; for G58C U59G C70A C86G: -2.75; for A27C G42U C104A C114A G128A: -7.58. Take G69C C115G: the “polymerase ribozyme fitness (log ratio)” value was -3.08. As to U9A, the “polymerase ribozyme fitness (log ratio)” value is 0.517. In the case of C56U C79A G113U it was -4.28. The same measure for C15U G23U G47A C49U C62U G65A A111C: -6.66. C31U G60A G61A C123G: the “polymerase ribozyme fitness (log ratio)” value was -6.05. In the case of G71A C114A it was -1.41; in that of C20U C34G A43U C70U C82U C114A, -7.14. The same measure for G61C C62G G63C U112A: -4.63; for C72U A119G: 0.547; for G48A G52U C80G: -5.98. Take A43G G63C U96C: the “polymerase ribozyme fitness (log ratio)” value is -2.76. As for C11U A26U C88A, the “polymerase ribozyme fitness (log ratio)” value was -4.34. Turning to G71C A108G, the “polymerase ribozyme fitness (log ratio)” value was -2.34. Consider C28G C98U, for which the “polymerase ribozyme fitness (log ratio)” value was -4.78. In the case of G45C C56U it was -1.86. For C13G G60A, the “polymerase ribozyme fitness (log ratio)” value was -1.21.

With C13U C124A, the “polymerase ribozyme fitness (log ratio)” value was determined as 1.91. In the case of G42C G63C C73A it was -3.92; in that of C53G C124A G127A, 0.953; in that of C15U C28U C89A C123A, -5.8. For A29G A50U C70G G113A, the “polymerase ribozyme fitness (log ratio)” value was -5.1. Take U38A G57U G58U: the “polymerase ribozyme fitness (log ratio)” value is -1.64. In the case of A43U C82G A119G C123U C124A it was -0.662.

Take G42A C73A C89G: the “polymerase ribozyme fitness (log ratio)” value was -2.01. In the case of G39U C73A it was -0.759. Turning to U7G C22G G47C G60U A84U, the “polymerase ribozyme fitness (log ratio)” value is -5.01. C8G A46G C97U G120U U132A: the “polymerase ribozyme fitness (log ratio)” value came to 1.67. Turning to G58U, the “polymerase ribozyme fitness (log ratio)” value was -0.329. In the case of G25U G120C it was -3.76; in that of G36C C98G, -6.86; in that of C12G G39A C82G C114U, -3.7. As for G45A G69U, the “polymerase ribozyme fitness (log ratio)” value stood at 1.63. The same measure for C62A G120U G122C: -1.92; for A18C G71A: -4.91; for C11G A95U U129C: -1.01. As for G47C G120C G122A G128U, the “polymerase ribozyme fitness (log ratio)” value is -3.66. On to G60C C94U, for which the “polymerase ribozyme fitness (log ratio)” value is -0.143. As for C15U C64U G117U G120A, the “polymerase ribozyme fitness (log ratio)” value is -1.73. Take C13G G39A: the “polymerase ribozyme fitness (log ratio)” value was -2.78. With U9G C97A A111G, the “polymerase ribozyme fitness (log ratio)” value is -6.78. With G69U C104U G127A, the “polymerase ribozyme fitness (log ratio)” value was -0.309. For the variant C3U C12U A18U U87A C88U, the “polymerase ribozyme fitness (log ratio)” value is -2.52. The same measure for C11G C49G A90U C124G U129C: -2.5; for C70A C101G: -4.14; for A27U C97U: -3.07. Take C4A C72A G113A: the “polymerase ribozyme fitness (log ratio)” value was -3.57. Take C8U U14C A75U G120A: the “polymerase ribozyme fitness (log ratio)” value worked out at 1.44. U30C C56G C70G U109A: the “polymerase ribozyme fitness (log ratio)” value was -5.1. A18G C70A: the “polymerase ribozyme fitness (log ratio)” value is -4.01. As for C11U C13U A83C C97A, the “polymerase ribozyme fitness (log ratio)” value is -4.34.

As for G39U G52U A95U U109G, the “polymerase ribozyme fitness (log ratio)” value was -6.38. Consider G47C U133G, for which the “polymerase ribozyme fitness (log ratio)” value was -1.54.

C22U G45U G47C: the “polymerase ribozyme fitness (log ratio)” value is -7.47.

Regarding C72G G113A, the “polymerase ribozyme fitness (log ratio)” value is -1.71. The same measure for G44U G48A C76U C85A C88A: -2.99. As for G47U U55G U116G, the “polymerase ribozyme fitness (log ratio)” value is -3.9. On to C79U C101G, for which the “polymerase ribozyme fitness (log ratio)” value was -1.8.

On to C62G U78C U96C, for which the “polymerase ribozyme fitness (log ratio)” value was -3.37. Regarding G60C C98U, the “polymerase ribozyme fitness (log ratio)” value was -0.75. Consider C8A U21A C34G U109G, for which the “polymerase ribozyme fitness (log ratio)” value is -6.49. On to G71U A83U C99A A105C C123U, for which the “polymerase ribozyme fitness (log ratio)” value was -7.02. For U116G C123U G128A, the “polymerase ribozyme fitness (log ratio)” value is -5.61. On to G60U U112G A121G U133A U134A, for which the “polymerase ribozyme fitness (log ratio)” value came to 1.66. Consider C15A A41U U129A, for which the “polymerase ribozyme fitness (log ratio)” value is -4.72. As for G69U C104U C115U, the “polymerase ribozyme fitness (log ratio)” value came to 1.66.

Turning to A37U G69U A95C C101G G127A, the “polymerase ribozyme fitness (log ratio)” value is -3.13.

For A6U A41G U81A, the “polymerase ribozyme fitness (log ratio)” value is -1.63.
